Test results published in publication PMC8889552.
Several values for one entry are separate records, joined by “and”; a condition that tells them apart may be missing. Equal values may be shown once.

Tests used:
[1] = target: recombinant HIV Gag (Pr55^Gag) (HIV); test: SPR
[2] = target: recombinant HIV Gag (Pr55^Gag) (HIV); test: charge detection mass spectrometry

For “recombinant HIV Gag (Pr55^Gag) (natural protein)”, the fold strengthening of homodimerization (SPR Kd) with Ca^2+ [1] was < 7 fold and the stoichiometry N [2] was 125 mers and 220 mers.
